{
  "source": "patent US20200168293A1",
  "about": "(UCB, published 2020)",
  "binders": {"B1": {"name": "Fab184 (Fab, V domains shown)", "VH": "QVQLQQSGPELVRPGVSVKISCKGSGYTFIAEMLHWVKQSHAESLEWIGLIIPAVGITYYNQKFKDKATMTVDIASSTAYLELARLTSEDSAIYYCARSWAEGLFFDYWGQGTLVT", "VL": "DIVMTQTPKFLLVSAGDKVTITCKASQSVSNALTWYQQKPGQSPKLLIYYASNRYTGVPDRFTGSGYGTDFTFTISTVQAEDLAVYFCQQDYGAPPTFGGGTKVEIKR", "notes": "Fab; Scaffold 3MXW; also called designed Fab"}, "B2": {"name": "LS146-scFv (scFv)", "scFv": "EVQLVESGGGLVQPGGSLRLSCAASGFAISASSIHWVRQAPGKCLEWVASIDPETGETLYAKSVAGRFTISADTSKNTAYLQMNSLRAEDTAVYYCARAYAGDGVYYADVWGQGTLVTVSSGGGGSGGGGSGGGGSGGGGSDIQMTQSPSSLSASVGDRVTITCRASQSVSSAVAWYQQKPGKAPKLLIYSASSLYSGVPSRFSGSRSGTDFTLTISSLQPEDFATYYCQQSYSFPSTFGCGTKVEIKRTENLYFQ", "notes": "VH-(Gly4Ser)4-VL followed by a TEV site and His10 tag; also called LS146 formatted as a single chain Fv; scFv-LS146"}, "B3": {"name": "G56 Fab (Fab, V domains shown)", "VH": "EVQLVESGGGLIRPGGSLRLSCKGSGFIFENFGFGWVRQGPGKGLEWVSGTNWNGGDSRYGDSVKGRFTISRDNSNNFVYLQMNSLRPEDTAIYYCARGTDYTIDETGERAQGSGTFWYFDVWGRGTLVTVSS", "VL": "EIVLTQSPATLSVSPGERATLSCRASQNVHPRYFAWYQQKRGQSPRLLIHSGSTRAAGIADRFSGGGSGMHFTLTITRVEPEDFAVYFCQQYGGSPYTFGQGTRVELR", "notes": "Scaffold 3U4B"}, "B4": {"name": "G56.1 Fab (Fab, V domains shown)", "VH": "EVQLVESGGGLIRPGGSLRLSCKGSGFIFENFGFGWVRQGPGKGLEWVSGTNWNGGDSQYGDSVKGRFTISRDNSNNFVYLQMNSLRPEDTAIYYCARGTDYTIDETGERAQGSGTFWYFDVWGRGTLVTVSS", "VL": "EIVLTQSPATLSVSPGERATLSCRASRNVHPRYFAWYQQKRGQSPRLLIHSGSTRAAGIADRFSGGGSGMHFTLTITRVEPEDFAVYFCQQYGGSPYTFGQGTRVELR", "notes": "Scaffold 3U4B"}, "B5": {"name": "Fab design 186 (Fab, V domains shown)", "VH": "EVQLVQSGAEVKKPGESLKISCKGSGYSFTAYWISWVRQMPGKGLEWMGRIIPSVSITNYSPSFQGHVTISADKAISTAYLQWSSLKASDTAMYYCARLLMQGAMLTFDSWGQGTLVT", "VL": "DIQMTQSPSSLSASVGDRVTITCRASQSIGLALAWYQQKPGKAPKLLIYAASSLQSGVPSRFSGSGSGTDFTLTISSLQPEDFATYYCQQGNTLSYTFGQGTKVEIKR", "notes": "Fab; Scaffold 3NAC"}},
  "key": {"TGFβ1 [1]": {"biological_target": "T1, TGFβ1 (UniProt P01137 279-390)", "T1 sequence (P01137 279-390 limits assumed)": "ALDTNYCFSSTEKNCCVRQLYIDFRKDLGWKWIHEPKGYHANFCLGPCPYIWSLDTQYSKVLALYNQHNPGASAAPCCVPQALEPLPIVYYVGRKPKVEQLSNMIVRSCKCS", "test": "cell-based or functional assay"}, "TGFβ2": {"biological_target": "T2, TGFβ2 (UniProt P61812 303-414)", "T2 sequence (looked up)": "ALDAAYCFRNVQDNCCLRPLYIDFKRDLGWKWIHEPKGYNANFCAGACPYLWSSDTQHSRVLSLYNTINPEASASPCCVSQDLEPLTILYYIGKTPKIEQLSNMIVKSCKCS", "test": "cell-based or functional assay"}, "TGFβ3 [2]": {"biological_target": "T3, TGFβ3 (UniProt P10600 301-412)", "T3 sequence (looked up)": "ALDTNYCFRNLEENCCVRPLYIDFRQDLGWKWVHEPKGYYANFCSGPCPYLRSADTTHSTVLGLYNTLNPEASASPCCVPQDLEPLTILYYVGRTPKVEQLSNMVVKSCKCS", "test": "cell-based or functional assay"}, "TGFβ1 [3]": {"biological_target": "T1, TGFβ1", "test": "SPR (Biacore), Fab immobilized on the chip"}, "TGFβ3 [4]": {"biological_target": "T3, TGFβ3", "test": "SPR (Biacore), Fab immobilized on the chip"}, "[5]": {"biological_target": "T4, Keap1 (Kelch 1-6 domains, AA 314-611) (Homo sapiens (Human), UniProt Q14145 321-611)", "T4 construct": "Kelch domain expressed in E. coli with an N-terminal His tag and TEV site; the same preparation is described for SPR; also called Kelch-like ECH-associated protein 1; Kelch domain of Keap1", "T4 sequence (Q14145 other isoform, or with tags, fused parts or gaps limits assumed)": "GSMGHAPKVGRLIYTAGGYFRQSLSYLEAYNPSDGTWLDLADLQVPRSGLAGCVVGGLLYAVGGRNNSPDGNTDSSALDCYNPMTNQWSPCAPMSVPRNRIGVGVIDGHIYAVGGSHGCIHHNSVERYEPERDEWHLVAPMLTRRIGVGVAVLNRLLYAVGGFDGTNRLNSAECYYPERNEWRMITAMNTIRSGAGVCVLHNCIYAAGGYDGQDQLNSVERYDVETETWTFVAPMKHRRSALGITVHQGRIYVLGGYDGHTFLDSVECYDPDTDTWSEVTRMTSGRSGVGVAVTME", "test": "Biacore competition assay (FIG. 33)", "description": "(§1) Surface plasmon resonance (SPR) experiments were carried out on a Biacore 3000 system (GE Healthcare) using reagents from the same manufacturer. […] The latter was immobilised to the activated carboxymethyl dextran surface via amine coupling as follows: a fresh mixture of 50 mM N-hydroxysuccimide and 200 mM 1-ethyl-3-(3-dimethylaminopropyl)-carbodiimide was injected for 5 minutes at a flow rate of 10 μl/min, followed by 50 μg/ml anti-human F(ab′)₂ in 10 mM acetate pH 5.0 buffer for 5 min at the same flow rate. Finally the surface was deactivated with a 10 minute pulse of 1 M ethanolamine.HCl pH 8.5. […] Initial binding of Keap1 to expressed Fabs was assessed by injecting 50 μl supernatant, diluted 1 in 5 in running buffer, over the reference and anti-F(ab′)₂ flow cells at a flow rate of 10 μl/min, followed by a 150 μl injection of 0, 500 or 5000 nM Keap1 in running buffer at a flow rate of 30 μl/min. […] Association and dissociation kinetics of Keap1 binding to captured Fabs were determined by the same protocol over at least 8 values of the following concentrations: 75, 100, 150, 250, 350, 500, 750, 1000, 1500, 2500, 3500 and 5000 nM. Zero Keap1 controls were interspersed between the former cycles in order to correct for baseline drift and sham transfected supernatant was assessed at each Keap1 concentration in order to determine and correct for non-specific binding of Keap1."}, "[6]": {"biological_target": "T4, Keap1 (Kelch 1-6 domains, AA 314-611)", "test": "Biacore competition assay, % inhibition against [Ab] M, fitted with log concentration vs normalized response/variable slope; neither the sheet nor the text names the surface-bound partner", "description": "as §1"}, "[7]": {"biological_target": "T4, Keap1 (Kelch 1-6 domains, AA 314-611)", "test": "SPR, captured Fab, Keap1 analyte", "description": "Surface plasmon resonance (SPR) experiments were carried out on a Biacore 3000 system (GE Healthcare) and detailed experimental details are given below. Briefly, supernatant containing expressed Fab (or sham transfected supernatant control) was injected over immobilized anti-human F(ab′)₂ polyclonal on a CM5 chip. A second injection of a Keap1 titration or a zero analyte control allowed association and dissociation kinetics to be monitored. Chip regeneration completed each sensorgram cycle. Sensorgrams were corrected for baseline drift, caused by slow dissociation of captured Fab, by subtraction of an adjacent zero analyte control cycle. […] Specificity of Fab binding to Keap1 was assessed by the same protocol by titration of an Nrf2 peptide analogue against a constant concentration of Keap1.\nSurface plasmon resonance (SPR) experiments were carried out on a Biacore 3000 system (GE Healthcare) using reagents from the same manufacturer. […] Initial binding of Keap1 to expressed Fabs was assessed by injecting 50 μl supernatant, diluted 1 in 5 in running buffer, over the reference and anti-F(ab′)₂ flow cells at a flow rate of 10 μl/min, followed by a 150 μl injection of 0, 500 or 5000 nM Keap1 in running buffer at a flow rate of 30 μl/min."}, "TGFβ1 [8]": {"biological_target": "T1, TGFβ1", "test": "SPR (Biacore)"}, "TGFβ3 [9]": {"biological_target": "T3, TGFβ3", "test": "SPR (Biacore)"}},
  "data": [
    {"binder": "B1", "values": [
      {"measurement": "TGFβ1 IC50 in the reporter gene assay (n = 2)", "setting": "TGFβ1 [1]", "value": 52.8, "unit": "nM"},
      {"measurement": "TGFβ2 IC50 in the reporter gene assay (n = 2)", "setting": "TGFβ2", "value": 36.8, "unit": "nM"},
      {"measurement": "TGFβ3 IC50 in the reporter gene assay (n = 2)", "setting": "TGFβ3 [2]", "value": 10.6, "unit": "nM"},
      {"measurement": "Kd", "setting": "TGFβ1 [3]", "value": 106, "unit": "nM"},
      {"measurement": "Kd", "setting": "TGFβ3 [4]", "value": 32.9, "unit": "nM"}
    ]},
    {"binder": "B2", "values": [
      {"measurement": "fold lower potency than its Fab form (LS146 Fab)", "setting": "[5]", "value": 3, "unit": "fold"},
      {"measurement": "IC50", "setting": "[6]", "value": 79, "unit": "nM"}
    ]},
    {"binder": "B3", "values": [
      {"measurement": "Fraction of Fab binding sites occupied @ 500 nM Keap1", "setting": "[7]", "value": 0.023, "unit": "fraction"}
    ]},
    {"binder": "B4", "values": [
      {"measurement": "Fraction of Fab binding sites occupied @ 500 nM Keap1", "setting": "[7]", "value": 0.027, "unit": "fraction"}
    ]},
    {"binder": "B5", "values": [
      {"measurement": "binding result", "setting": "TGFβ1 [8]", "value": "no binding"},
      {"measurement": "binding result", "setting": "TGFβ3 [9]", "value": "no binding"}
    ]}
  ]
}
